Results as given in patent US20150203577A1 (Chugai, published 2015).

T1: mouse FcγRII (mouse, UniProt P08101 30-210)
T1 construct: Extracellular domain with C-terminal His tag; also called mFcγRII; mFcgRII
T1 sequence: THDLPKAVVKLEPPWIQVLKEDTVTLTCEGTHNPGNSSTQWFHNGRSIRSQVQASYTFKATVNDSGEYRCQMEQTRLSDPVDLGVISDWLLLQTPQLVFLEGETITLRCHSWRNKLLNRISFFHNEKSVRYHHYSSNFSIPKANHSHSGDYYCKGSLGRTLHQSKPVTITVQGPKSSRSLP

T2: mouse FcγRIII (mouse, UniProt P08508 31-215)
T2 construct: Extracellular domain with C-terminal His tag; also called mFcγRIII; mFcgRIII
T2 chain: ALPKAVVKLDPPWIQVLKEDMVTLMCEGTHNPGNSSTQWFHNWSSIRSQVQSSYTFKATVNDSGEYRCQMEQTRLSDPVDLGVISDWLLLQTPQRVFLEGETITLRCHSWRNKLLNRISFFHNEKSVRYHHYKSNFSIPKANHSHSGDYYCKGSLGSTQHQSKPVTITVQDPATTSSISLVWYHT


Legend:
mouse FcγRII [1] = molecular target: T1, mouse FcγRII; assay: SPR (Biacore T200); KD of H237-MB630/MRAL-k0 / KD of variant
mouse FcγRIII [2] = molecular target: T2, mouse FcγRIII; assay: as above
mouse FcγRII [3] = molecular target: T1, mouse FcγRII; assay: SPR (Biacore T200); KD of H237-mIgG1/MRAL-k0 / KD of variant
mouse FcγRIII [4] = molecular target: T2, mouse FcγRIII; assay: as above

Relative mFcγRII-binding activity (MB630 = 1) (mouse FcγRII [1]) | Relative mFcγRIII-binding activity (MB630 = 1) (mouse FcγRIII [2]) | relative mFcγRII-binding activity (mIgG1 = 1) (mouse FcγRII [3]) | relative mFcγRIII-binding activity (mIgG1 = 1) (mouse FcγRIII [4]) | Binder
1.36 fold | 2.24 fold | 14.7 fold | 0.38 fold | MB784 (antibody, mouse IgG1, kappa, CH name; VH H237 + CH, L chain MRAL-k0; copies: 2 + 2) heavy: QVQLQESGPGLVKPSETLSLTCAVSGHSISHDHAWSWVRQPPGEGLEWIGFISYSGITNYNPSLQGRVTISRDNSKNTLYLQMNSLRAEDTAVYYCARSLARTTAMDYWGEGTLVTVSSAKTTPPSVYPLAPGSAAQTNSMVTLGCLVKGYFPEPVTVTWNSGSLSSGVHTFPAVLQSDLYTLSSSVTVPSSTWPSETVTCNVAHPASSTKVDKKIVPRDCGCKPCICEPNEVELVFIFPPKPKDVLTITLTPKVTCVVVDISKDDPEVQFSWFVDDVEVHTAQTQPREELFNSTFRSVSELPIMHQDWLNGKEFKCRVNSAAFPAPIERTISKTKGRPKAPQVYTIPPPKEQMAKDKVSLTCMITDFFPEDITVEWQWNGQPAENYKNTQPIMDTDGSYFVYSKLNVQKSNWEAGNTFTCSVLHEGLHNHHTEKSLSHSPGK light: not shown
2.06 fold | 3.46 fold | 22.4 fold | 0.59 fold | MB788 (antibody, mouse IgG1, kappa, CH name; VH H237 + CH, L chain MRAL-k0; copies: 2 + 2) heavy: QVQLQESGPGLVKPSETLSLTCAVSGHSISHDHAWSWVRQPPGEGLEWIGFISYSGITNYNPSLQGRVTISRDNSKNTLYLQMNSLRAEDTAVYYCARSLARTTAMDYWGEGTLVTVSSAKTTPPSVYPLAPGSAAQTNSMVTLGCLVKGYFPEPVTVTWNSGSLSSGVHTFPAVLQSDLYTLSSSVTVPSSTWPSETVTCNVAHPASSTKVDKKIVPRDCGCKPCICEPNEVELVFIFPPKPKDVLTITLTPKVTCVVVDISKDDPEVQFSWFVDDVEVHTAQTQPREELFNSTFRSVSELPIMHQDWLNGKEFKCRVDSAAFPAPIERTISKTKGRPKAPQVYTIPPPKEQMAKDKVSLTCMITDFFPEDITVEWQWNGQPAENYKNTQPIMDTDGSYFVYSKLNVQKSNWEAGNTFTCSVLHEGLHNHHTEKSLSHSPGK light: not shown
2.84 fold | 4.79 fold | 30.9 fold | 0.82 fold | MB789 (antibody, mouse IgG1, kappa, CH name; VH H237 + CH, L chain MRAL-k0; copies: 2 + 2) heavy: QVQLQESGPGLVKPSETLSLTCAVSGHSISHDHAWSWVRQPPGEGLEWIGFISYSGITNYNPSLQGRVTISRDNSKNTLYLQMNSLRAEDTAVYYCARSLARTTAMDYWGEGTLVTVSSAKTTPPSVYPLAPGSAAQTNSMVTLGCLVKGYFPEPVTVTWNSGSLSSGVHTFPAVLQSDLYTLSSSVTVPSSTWPSETVTCNVAHPASSTKVDKKIVPRDCGCKPCICEPNEVELVFIFPPKPKDVLTITLTPKVTCVVVDISKDDPEVQFSWFVDDVEVHTAQTQPREELFNSTFRSVSELPIMHQDWLNGKEFKCRVNSDAFPAPIERTISKTKGRPKAPQVYTIPPPKEQMAKDKVSLTCMITDFFPEDITVEWQWNGQPAENYKNTQPIMDTDGSYFVYSKLNVQKSNWEAGNTFTCSVLHEGLHNHHTEKSLSHSPGK light: not shown
2.29 fold | 2.85 fold | 24.9 fold | 0.49 fold | MB785 (antibody, mouse IgG1, kappa, CH name; VH H237 + CH, L chain MRAL-k0; copies: 2 + 2) heavy: QVQLQESGPGLVKPSETLSLTCAVSGHSISHDHAWSWVRQPPGEGLEWIGFISYSGITNYNPSLQGRVTISRDNSKNTLYLQMNSLRAEDTAVYYCARSLARTTAMDYWGEGTLVTVSSAKTTPPSVYPLAPGSAAQTNSMVTLGCLVKGYFPEPVTVTWNSGSLSSGVHTFPAVLQSDLYTLSSSVTVPSSTWPSETVTCNVAHPASSTKVDKKIVPRDCGCKPCICEPNEVELVFIFPPKPKDVLTITLTPKVTCVVVDISKDDPEVQFSWFVDDVEVHTAQTQPREEQFNSTFRSVSELPIMHQDWLNGKEFKCRVDSDAFPAPIEKTISKTKGRPKAPQVYTIPPPKEQMAKDKVSLTCMITDFFPEDITVEWQWNGQPAENYKNTQPIMDTDGSYFVYSKLNVQKSNWEAGNTFTCSVLHEGLHNHHTEKSLSHSPGK light: not shown
1.67 fold | 2.11 fold | 21.9 fold | 0.49 fold | MB807 (antibody, mouse IgG1, kappa, CH name; VH H237 + CH, L chain MRAL-k0; copies: 2 + 2) heavy: QVQLQESGPGLVKPSETLSLTCAVSGHSISHDHAWSWVRQPPGEGLEWIGFISYSGITNYNPSLQGRVTISRDNSKNTLYLQMNSLRAEDTAVYYCARSLARTTAMDYWGEGTLVTVSSAKTTPPSVYPLAPGSAAQTNSMVTLGCLVKGYFPEPVTVTWNSGSLSSGVHTFPAVLQSDLYTLSSSVTVPSSTWPSETVTCNVAHPASSTKVDKKIVPRDCGCKPCICEPNEVELVFIFPPKPKDVLTITLTPKVTCVVVDISKDDPEVQFSWFVDDVEVHTAQTQPREELFNSTFRSVSELPIMHQDWLNGKEFKCRVMSAAFPAPIEKTISKTKGRPKAPQVYTIPPPKEQMAKDKVSLTCMITDFFPEDITVEWQWNGQPAENYKNTQPIMDTDGSYFVYSKLNVQKSNWEAGNTFTCSVLHEGLHNHHTEKSLSHSPGK light: not shown
2.5 fold | 3.33 fold | 27.2 fold | 0.57 fold | MB786 (antibody, mouse IgG1, kappa, CH name; VH H237 + CH, L chain MRAL-k0; copies: 2 + 2) heavy: QVQLQESGPGLVKPSETLSLTCAVSGHSISHDHAWSWVRQPPGEGLEWIGFISYSGITNYNPSLQGRVTISRDNSKNTLYLQMNSLRAEDTAVYYCARSLARTTAMDYWGEGTLVTVSSAKTTPPSVYPLAPGSAAQTNSMVTLGCLVKGYFPEPVTVTWNSGSLSSGVHTFPAVLQSDLYTLSSSVTVPSSTWPSETVTCNVAHPASSTKVDKKIVPRDCGCKPCICEPNEVELVFIFPPKPKDVLTITLTPKVTCVVVDISKDDPEVQFSWFVDDVEVHTAQTQPREEQFNSTFRSVSELPIMHQDWLNGKEFKCRVNSDAFPAPIERTISKTKGRPKAPQVYTIPPPKEQMAKDKVSLTCMITDFFPEDITVEWQWNGQPAENYKNTQPIMDTDGSYFVYSKLNVQKSNWEAGNTFTCSVLHEGLHNHHTEKSLSHSPGK light: not shown
3.7 fold | 6.43 fold | 40.1 fold | 1.1 fold | MB791 (antibody, mouse IgG1, kappa, CH name; VH H237 + CH, L chain MRAL-k0; copies: 2 + 2) heavy: QVQLQESGPGLVKPSETLSLTCAVSGHSISHDHAWSWVRQPPGEGLEWIGFISYSGITNYNPSLQGRVTISRDNSKNTLYLQMNSLRAEDTAVYYCARSLARTTAMDYWGEGTLVTVSSAKTTPPSVYPLAPGSAAQTNSMVTLGCLVKGYFPEPVTVTWNSGSLSSGVHTFPAVLQSDLYTLSSSVTVPSSTWPSETVTCNVAHPASSTKVDKKIVPRDCGCKPCICEPNEVELVFIFPPKPKDVLTITLTPKVTCVVVDISKDDPEVQFSWFVDDVEVHTAQTQPREELFNSTFRSVSELPIMHQDWLNGKEFKCRVDSDAFPAPIERTISKTKGRPKAPQVYTIPPPKEQMAKDKVSLTCMITDFFPEDITVEWQWNGQPAENYKNTQPIMDTDGSYFVYSKLNVQKSNWEAGNTFTCSVLHEGLHNHHTEKSLSHSPGK light: not shown
3.08 fold | 4.09 fold | 33.5 fold | 0.7 fold | MB790 (antibody, mouse IgG1, kappa, CH name; VH H237 + CH, L chain MRAL-k0; copies: 2 + 2) heavy: QVQLQESGPGLVKPSETLSLTCAVSGHSISHDHAWSWVRQPPGEGLEWIGFISYSGITNYNPSLQGRVTISRDNSKNTLYLQMNSLRAEDTAVYYCARSLARTTAMDYWGEGTLVTVSSAKTTPPSVYPLAPGSAAQTNSMVTLGCLVKGYFPEPVTVTWNSGSLSSGVHTFPAVLQSDLYTLSSSVTVPSSTWPSETVTCNVAHPASSTKVDKKIVPRDCGCKPCICEPNEVELVFIFPPKPKDVLTITLTPKVTCVVVDISKDDPEVQFSWFVDDVEVHTAQTQPREEQFNSTFRSVSELPIMHQDWLNGKEFKCRVDSDAFPAPIERTISKTKGRPKAPQVYTIPPPKEQMAKDKVSLTCMITDFFPEDITVEWQWNGQPAENYKNTQPIMDTDGSYFVYSKLNVQKSNWEAGNTFTCSVLHEGLHNHHTEKSLSHSPGK light: not shown
3.55 fold | 5.57 fold | 38.5 fold | 0.96 fold | MB787 (antibody, mouse IgG1, kappa, CH name; VH H237 + CH, L chain MRAL-k0; copies: 2 + 2) heavy: QVQLQESGPGLVKPSETLSLTCAVSGHSISHDHAWSWVRQPPGEGLEWIGFISYSGITNYNPSLQGRVTISRDNSKNTLYLQMNSLRAEDTAVYYCARSLARTTAMDYWGEGTLVTVSSAKTTPPSVYPLAPGSAAQTNSMVTLGCLVKGYFPEPVTVTWNSGSLSSGVHTFPAVLQSDLYTLSSSVTVPSSTWPSETVTCNVAHPASSTKVDKKIVPRDCGCKPCICEPNEVELVFIFPPKPKDVLTITLTPKVTCVVVDISKDDPEVQFSWFVDDVEVHTAQTQPREELFNSTFRSVSELPIMHQDWLNGKEFKCRVDSDAFPAPIEKTISKTKGRPKAPQVYTIPPPKEQMAKDKVSLTCMITDFFPEDITVEWQWNGQPAENYKNTQPIMDTDGSYFVYSKLNVQKSNWEAGNTFTCSVLHEGLHNHHTEKSLSHSPGK light: not shown
